Measurements from publication PMC4994864.

Target: T1, His-yTop3 (Saccharomyces cerevisiae, UniProt P13099 1-656)
T1 sequence: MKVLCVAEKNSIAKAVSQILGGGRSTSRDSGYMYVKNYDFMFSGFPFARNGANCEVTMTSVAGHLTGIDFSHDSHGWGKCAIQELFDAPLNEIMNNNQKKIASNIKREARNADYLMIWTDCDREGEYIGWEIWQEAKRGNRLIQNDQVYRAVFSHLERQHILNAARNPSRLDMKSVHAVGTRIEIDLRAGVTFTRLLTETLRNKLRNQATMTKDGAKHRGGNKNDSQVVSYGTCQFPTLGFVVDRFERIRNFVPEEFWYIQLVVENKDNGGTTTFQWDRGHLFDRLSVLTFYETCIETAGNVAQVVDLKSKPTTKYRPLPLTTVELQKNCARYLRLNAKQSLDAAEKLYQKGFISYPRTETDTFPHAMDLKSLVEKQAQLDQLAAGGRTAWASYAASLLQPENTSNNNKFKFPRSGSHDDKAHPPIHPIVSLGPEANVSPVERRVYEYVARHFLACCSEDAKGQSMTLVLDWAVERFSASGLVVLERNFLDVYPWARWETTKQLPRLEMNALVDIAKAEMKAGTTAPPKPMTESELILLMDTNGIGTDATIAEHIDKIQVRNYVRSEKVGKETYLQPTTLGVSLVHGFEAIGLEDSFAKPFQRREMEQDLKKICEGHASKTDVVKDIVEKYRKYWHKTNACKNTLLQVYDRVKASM
Test: EMSA; gel-shift band at 50 nM protein in the RNA topoisomerase reaction; abolished by phenol-chloroform; RNA topoisomerase reaction mixture; buffer, salt, pH and temperature not given in the material

B1: 128-nt circular RNA topoisomerase substrate (structured_RNA)
RNA: GGGAGAUUUUUUUUUUUUUUUUUUUUGUCAGACGGAUCUUUUUUUUUUUUUUUUUUUUUCUCCCGACUGGUUUUUUUUUUUUUUUUUUUUGAUCCGUCUGACUUUUUUUUUUUUUUUUUUUUCCAGUC
modifications: circularised with T4 RNA ligase (5' end joined to 3' end)
binding result: binds
